Experimental data: article PMC2847222

Target: RepD replication initiation protein of Staphylococcus aureus plasmid pC221 (wild type) (Staphylococcus aureus (plasmid pC221)) (UniProt P03065)
Experiment: AUC

Chain of UniProt P03065 (P03065 whole entry): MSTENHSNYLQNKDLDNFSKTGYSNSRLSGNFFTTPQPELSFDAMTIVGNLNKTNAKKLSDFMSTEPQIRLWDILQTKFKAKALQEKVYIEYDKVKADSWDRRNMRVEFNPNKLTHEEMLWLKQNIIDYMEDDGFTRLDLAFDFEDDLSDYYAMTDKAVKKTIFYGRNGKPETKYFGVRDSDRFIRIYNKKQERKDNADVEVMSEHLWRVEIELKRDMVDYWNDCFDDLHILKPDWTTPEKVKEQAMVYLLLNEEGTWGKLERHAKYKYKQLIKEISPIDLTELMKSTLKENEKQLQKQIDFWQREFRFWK

B1: Bacillus stearothermophilus PcrA helicase (enzyme)
chain: MNFLSEQLLAHLNKEQQEAVRTTEGPLLIMAGAGSGKTRVLTHRIAYLMAEKHVAPWNILAITFTNKAAREMRERVQSLLGGAAEDVWISTFHSMCVRILRRDIDRIGINRNFSILDPTDQLSVMKTILKEKNIDPKKFEPRTILGTISAAKNELLPPEQFAKRASTYYEKVVSDVYQEYQQRLLRNHSLDFDDLIMTTIQLFDRVPDVLHYYQYKFQYIHIDEYQDTNRAQYTLVKKLAERFQNICAVGDADQSIYRWRGADIQNILSFERDYPNAKVILLEQNYRSTKRILQAANEVIEHNVNRKPKRIWTENPEGKPILYYEAMNEADEAQFVAGRIREAVERGERRYRDFAVLYRTNAQSRVMEEMLLKANIPYQIVGGLKFYDRKEIKDILAYLRVIANPDDDLSLLRIINVPKRGIGASTIDKLVRYAADHELSLFEALGELEMIGLGAKAAGALAAFRSQLEQWTQLQEYVSVTELVEEVLDKSGYREMLKAERTIEAQSRLENLDEFLSVTKHFENVSDDKSLIAFLTDLALISDLDELDGTEQAAEGDAVMLMTLHAAKGLEFPVVFLIGMEEGIFPHNRSLEDDDEMEEERRLAYVGITRAEEELVLTSAQMRTLFGNIQMDPPSRFLNEIPAHLLETASRRQAGASRPAVSRPQASGAVGSWKVGDRANHRKWGIGTVVSVRGGGDDQELDIAFPSPIGIKRLLAKFAPIEKV
With B1 the Kd was 98.5 nM.
